According to PMC3601739 (Chemical communications (Cambridge, England), 2013):

Assays:
BPBA2 (synthetic) [1] = assay: dot blot; details: not stated in the material (details in ESI)
BPBA7 (synthetic) = assay: dot blot; details: not stated in the material (details in ESI)
BPBA5 (synthetic) = assay: dot blot; details: not stated in the material (details in ESI)
BPBA1 (synthetic) [2] = assay: dot blot; details: not stated in the material (details in ESI)
BPBA6 (synthetic) = assay: dot blot; details: not stated in the material (details in ESI)
BPBA1.2 (synthetic) = assay: dot blot; details: not stated in the material (details in ESI)
BPBA4 (synthetic) = assay: dot blot; details: not stated in the material (details in ESI)
BPBA3 (synthetic) [3] = assay: dot blot; details: not stated in the material (details in ESI)
BPBA8 (synthetic) = assay: dot blot; details: not stated in the material (details in ESI)
BPBA2 (synthetic) [4] = assay: EMSA; details: not stated in the material (details in ESI)
BPBA1 (synthetic) [5] = assay: EMSA; details: not stated in the material (details in ESI)
BPBA3 (synthetic) [6] = assay: EMSA; details: not stated in the material (details in ESI)
HIV-1 RRE IIB RNA [7] = assay: Dot blot assay, 32P-labeled RRE IIB titrated with BPBAs; type: binding; details: read-out: Kd (dissociation constant), 32P-labeled RRE IIB titrated with increasing concentration of peptide, average of at least three experiments
HIV-1 RRE IIB RNA [8] = assay: Electrophoretic mobility shift assay; type: binding; details: read-out: Kd (dissociation constant) determined through EMSA; EMSA with RRE IIB

HIV-1 RRE IIB RNA
Kd (BPBA2 (synthetic) [1]): 3.3 µM
Kd (BPBA7 (synthetic)): 58.4 µM
Kd (BPBA5 (synthetic)): 27.2 µM
Kd (BPBA1 (synthetic) [2]): 1.4 µM
Kd (BPBA6 (synthetic)): 28.5 µM
Kd (BPBA1.2 (synthetic)): 0.8 µM
Kd (BPBA4 (synthetic)): 26.8 µM
Kd (BPBA3 (synthetic) [3]): 8.7 µM
Kd (BPBA8 (synthetic)): 86.5 µM
Kd (BPBA2 (synthetic) [4]): 0.6 µM
Kd (BPBA1 (synthetic) [5]): 0.3 µM
Kd (BPBA3 (synthetic) [6]): 4.6 µM

(KKBBAK)2 * KLKY [BPBA7]
Kd (HIV-1 RRE IIB RNA [7]): 58.4 ± 4 µM

(FBPAYFBPA)2 * NKSY [BPBA3]
Kd (HIV-1 RRE IIB RNA [8]): 4.6 ± 2.4 µM
Kd (HIV-1 RRE IIB RNA [7]): 8.7 ± 2.3 µM

(WKK)2 * KBBAYWY [BPBA1]
Kd (HIV-1 RRE IIB RNA [7]): 1.4 ± 0.4 µM

(KBBAKFBPA)2 * KBBAKKY [BPBA2]
Kd (HIV-1 RRE IIB RNA [7]): 3.3 ± 1.2 µM

(KKKBBA)2 * FBPATSY [BPBA4]
Kd (HIV-1 RRE IIB RNA [7]): 26.8 ± 4.4 µM

(KBBAYK)2 * HKKY [BPBA8]
Kd (HIV-1 RRE IIB RNA [7]): 86.5 ± 10 µM

(KKBBAF)2 * KKWY [BPBA5]
Kd (HIV-1 RRE IIB RNA [7]): 27.2 ± 6.9 µM
